Data on 11 molecules can be found in patent US20140213531A1 (POLYPHOR, published 2014).

Holding throughout (experiment): enzyme inhibition, pNA substrate
The target in test [1] is T1, Chymotrypsin, from human pancreas (human, UniProt P17538 19-263).
T1 construct: purified natural enzyme, bought

Test [2] deals with Thrombin, from Human Plasma, high activity (human, UniProt P00734 328-622).
Another test has as its target T2, Chymase, from human skin (human, UniProt P23946 22-247).
T2 construct: purified natural enzyme, bought
T2 sequence (looked up): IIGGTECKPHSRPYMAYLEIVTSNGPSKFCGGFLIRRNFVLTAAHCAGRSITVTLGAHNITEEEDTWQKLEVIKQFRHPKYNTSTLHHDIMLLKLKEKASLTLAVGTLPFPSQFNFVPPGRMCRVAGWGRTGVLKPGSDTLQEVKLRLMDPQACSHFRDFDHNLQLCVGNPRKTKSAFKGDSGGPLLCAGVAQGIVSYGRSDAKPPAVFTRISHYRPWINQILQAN

Test [3] has as its target T3, Coagulation Factor Xa, from uman plasma (human, UniProt P00742 41-179; P00742 235-488, limits assumed).
T3 construct: purified natural enzyme, bought; also called FXa

The target of test [4] is T4, Tryptase, from human lung (human, UniProt Q15661 31-275, limits assumed).
T4 construct: purified natural enzyme, bought

Test [5] concerns the target T5, Urokinase from human urine (human, UniProt P00749 21-431, limits assumed).
T5 construct: purified natural enzyme, bought

Test [6] concerns the target T6, Trypsin, Iodination grade, from human pancreas (human, UniProt P07477 24-247).
T6 construct: purified natural enzyme, bought

T3 sequence (P00742 41-179 limits assumed, chain 1 of 2): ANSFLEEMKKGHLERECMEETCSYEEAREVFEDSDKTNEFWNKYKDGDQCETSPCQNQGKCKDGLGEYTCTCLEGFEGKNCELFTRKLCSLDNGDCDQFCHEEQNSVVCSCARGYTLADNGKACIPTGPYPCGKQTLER
T3 sequence (P00742 235-488 limits assumed, chain 2 of 2): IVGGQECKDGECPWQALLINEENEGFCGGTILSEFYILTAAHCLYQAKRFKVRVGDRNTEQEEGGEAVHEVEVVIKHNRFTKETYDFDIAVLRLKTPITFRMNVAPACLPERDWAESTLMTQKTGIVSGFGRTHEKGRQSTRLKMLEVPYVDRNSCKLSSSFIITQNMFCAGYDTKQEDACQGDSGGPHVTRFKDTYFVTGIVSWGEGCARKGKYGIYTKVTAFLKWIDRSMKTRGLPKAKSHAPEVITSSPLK
T1 sequence (P17538 19-263): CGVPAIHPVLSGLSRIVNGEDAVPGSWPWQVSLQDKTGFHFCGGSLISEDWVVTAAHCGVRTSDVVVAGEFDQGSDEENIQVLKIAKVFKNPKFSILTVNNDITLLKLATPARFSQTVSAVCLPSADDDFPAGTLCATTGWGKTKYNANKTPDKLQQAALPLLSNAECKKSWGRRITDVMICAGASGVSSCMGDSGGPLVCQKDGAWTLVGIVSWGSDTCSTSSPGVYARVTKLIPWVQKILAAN
T4 sequence (Q15661 31-275 limits assumed): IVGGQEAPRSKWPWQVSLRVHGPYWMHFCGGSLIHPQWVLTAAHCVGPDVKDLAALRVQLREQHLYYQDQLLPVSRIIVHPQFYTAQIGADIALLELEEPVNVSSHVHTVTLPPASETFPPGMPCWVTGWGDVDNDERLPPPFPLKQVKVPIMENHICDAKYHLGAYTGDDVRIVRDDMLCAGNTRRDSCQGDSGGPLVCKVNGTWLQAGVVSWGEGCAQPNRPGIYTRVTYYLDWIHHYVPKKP

B1: Example 137 (peptide)
peptide: XCTASIPPQCF
HELM: PEPTIDE1{[Nle].C.T.A.S.I.P.P.Q.C.F.[dP].P}$PEPTIDE1,PEPTIDE1,2:R3-10:R3|PEPTIDE1,PEPTIDE1,1:R1-13:R2$$$V2.0
SMILES: CCCC[C@@H]1NC(=O)[C@@H]2CCCN2C(=O)[C@H]2CCCN2C(=O)[C@H](Cc2ccccc2)NC(=O)[C@@H]2CSSC[C@H](NC1=O)C(=O)N[C@@H]([C@@H](C)O)C(=O)N[C@@H](C)C(=O)N[C@@H](CO)C(=O)N[C@@H]([C@@H](C)CC)C(=O)N1CCC[C@H]1C(=O)N1CCC[C@H]1C(=O)N[C@@H](CCC(N)=O)C(=O)N2
notes: also called Ex. 137
In the case of B1, the “% inhibition at 100 µM” value was determined as 68.7% in test [1]; 0% in test [2]; 0% with Chymase, from human skin.

B2: Example 123 (peptide)
peptide: XCTASIPPQCY
HELM: PEPTIDE1{[Nle].C.T.A.S.I.P.P.Q.C.Y.[dP].Q}$PEPTIDE1,PEPTIDE1,2:R3-10:R3|PEPTIDE1,PEPTIDE1,1:R1-13:R2$$$V2.0
SMILES: CCCC[C@@H]1NC(=O)[C@H](CCC(N)=O)NC(=O)[C@H]2CCCN2C(=O)[C@H](Cc2ccc(O)cc2)NC(=O)[C@@H]2CSSC[C@H](NC1=O)C(=O)N[C@@H]([C@@H](C)O)C(=O)N[C@@H](C)C(=O)N[C@@H](CO)C(=O)N[C@@H]([C@@H](C)CC)C(=O)N1CCC[C@H]1C(=O)N1CCC[C@H]1C(=O)N[C@@H](CCC(N)=O)C(=O)N2
notes: also called Ex. 123
Turning to B2, the “% inhibition at 100 µM” value was 0% in test [3] and 0% with Chymase, from human skin.

B3: Example 179 (peptide)
peptide: XCTASIPPQCY
HELM: PEPTIDE1{[Nle].C.T.A.S.I.P.P.Q.C.Y.[dP].P}$PEPTIDE1,PEPTIDE1,2:R3-10:R3|PEPTIDE1,PEPTIDE1,1:R1-13:R2$$$V2.0
SMILES: CCCC[C@@H]1NC(=O)[C@@H]2CCCN2C(=O)[C@H]2CCCN2C(=O)[C@H](Cc2ccc(O)cc2)NC(=O)[C@@H]2CSSC[C@H](NC1=O)C(=O)N[C@@H]([C@@H](C)O)C(=O)N[C@@H](C)C(=O)N[C@@H](CO)C(=O)N[C@@H]([C@@H](C)CC)C(=O)N1CCC[C@H]1C(=O)N1CCC[C@H]1C(=O)N[C@@H](CCC(N)=O)C(=O)N2
Take B3: the “% inhibition at 100 µM” value in test [1] stood at 76%; in test [4] it was 0%.

B4: Example 97 (peptide)
peptide: XCTASIPPQCX
HELM: PEPTIDE1{[Nle].C.T.A.S.I.P.P.Q.C.[Cha].[dP].P}$PEPTIDE1,PEPTIDE1,2:R3-10:R3|PEPTIDE1,PEPTIDE1,1:R1-13:R2$$$V2.0
SMILES: CCCC[C@@H]1NC(=O)[C@@H]2CCCN2C(=O)[C@H]2CCCN2C(=O)[C@H](CC2CCCCC2)NC(=O)[C@@H]2CSSC[C@H](NC1=O)C(=O)N[C@@H]([C@@H](C)O)C(=O)N[C@@H](C)C(=O)N[C@@H](CO)C(=O)N[C@@H]([C@@H](C)CC)C(=O)N1CCC[C@H]1C(=O)N1CCC[C@H]1C(=O)N[C@@H](CCC(N)=O)C(=O)N2
notes: also called Ex. 97
On to B4, for which the “% inhibition at 100 µM” value in test [4] is 0%; in test [5], 11.9%; in test [2], 11.6%; in the test with Chymase, from human skin it was 0%.

B5: Example 144 (peptide)
peptide: XCTASIPPQCX
HELM: PEPTIDE1{[Nle].C.T.A.S.I.P.P.Q.C.[O=C([C@H](Cc1ccccc1Cl)N[*:1])[*:2]].[dP].P}$PEPTIDE1,PEPTIDE1,2:R3-10:R3|PEPTIDE1,PEPTIDE1,1:R1-13:R2$$$V2.0
SMILES: CCCC[C@@H]1NC(=O)[C@@H]2CCCN2C(=O)[C@H]2CCCN2C(=O)[C@H](Cc2ccccc2Cl)NC(=O)[C@@H]2CSSC[C@H](NC1=O)C(=O)N[C@@H]([C@@H](C)O)C(=O)N[C@@H](C)C(=O)N[C@@H](CO)C(=O)N[C@@H]([C@@H](C)CC)C(=O)N1CCC[C@H]1C(=O)N1CCC[C@H]1C(=O)N[C@@H](CCC(N)=O)C(=O)N2
Consider B5, for which the “% inhibition at 100 µM” value is 0% in test [3]; 80.6% in test [1]; 0% in test [4]; 0% in the test with Chymase, from human skin.

B6: Example 121 (peptide)
peptide: XCTASIPPQCY
HELM: PEPTIDE1{[Nle].C.T.A.S.I.P.P.Q.C.Y.[dP].D}$PEPTIDE1,PEPTIDE1,2:R3-10:R3|PEPTIDE1,PEPTIDE1,1:R1-13:R2$$$V2.0
SMILES: CCCC[C@@H]1NC(=O)[C@H](CC(=O)O)NC(=O)[C@H]2CCCN2C(=O)[C@H](Cc2ccc(O)cc2)NC(=O)[C@@H]2CSSC[C@H](NC1=O)C(=O)N[C@@H]([C@@H](C)O)C(=O)N[C@@H](C)C(=O)N[C@@H](CO)C(=O)N[C@@H]([C@@H](C)CC)C(=O)N1CCC[C@H]1C(=O)N1CCC[C@H]1C(=O)N[C@@H](CCC(N)=O)C(=O)N2
On to B6, for which the “% inhibition at 100 µM” value stood at 12.8% in test [6] and 0% in test [2].

B7: Example 96 (peptide)
peptide: XCTASIPPQCX
HELM: PEPTIDE1{[Nle].C.T.A.S.I.P.P.Q.C.[O=C([C@H](Cc1ccccc1Cl)N[*:1])[*:2]].[dP].P}$PEPTIDE1,PEPTIDE1,2:R3-10:R3|PEPTIDE1,PEPTIDE1,1:R1-13:R2$$$V2.0
SMILES: CCCC[C@@H]1NC(=O)[C@@H]2CCCN2C(=O)[C@H]2CCCN2C(=O)[C@H](Cc2ccccc2Cl)NC(=O)[C@@H]2CSSC[C@H](NC1=O)C(=O)N[C@@H]([C@@H](C)O)C(=O)N[C@@H](C)C(=O)N[C@@H](CO)C(=O)N[C@@H]([C@@H](C)CC)C(=O)N1CCC[C@H]1C(=O)N1CCC[C@H]1C(=O)N[C@@H](CCC(N)=O)C(=O)N2
notes: also called Ex. 96
As for B7, the “% inhibition at 100 µM” value worked out at 0% in test [3]; 0% in test [4]; 0% with Chymase, from human skin.

B8: Example 168 (peptide)
peptide: XCTASIPPQCY
HELM: PEPTIDE1{[Nle].C.T.A.S.I.P.P.Q.C.Y.[dP].D}$PEPTIDE1,PEPTIDE1,2:R3-10:R3|PEPTIDE1,PEPTIDE1,1:R1-13:R2$$$V2.0
SMILES: CCCC[C@@H]1NC(=O)[C@H](CC(=O)O)NC(=O)[C@H]2CCCN2C(=O)[C@H](Cc2ccc(O)cc2)NC(=O)[C@@H]2CSSC[C@H](NC1=O)C(=O)N[C@@H]([C@@H](C)O)C(=O)N[C@@H](C)C(=O)N[C@@H](CO)C(=O)N[C@@H]([C@@H](C)CC)C(=O)N1CCC[C@H]1C(=O)N1CCC[C@H]1C(=O)N[C@@H](CCC(N)=O)C(=O)N2
notes: also called Ex. 168
As to B8, the “% inhibition at 100 µM” value in test [1] was determined as 72.9%; in test [6] it was 12.8%; in test [2], 0%.

B9: Example 102 (peptide)
peptide: XCTASIPPQCY
HELM: PEPTIDE1{[CCCCCCCC[C@H](N[*:1])C(=O)[*:2]].C.T.A.S.I.P.P.Q.C.Y.[dP].P}$PEPTIDE1,PEPTIDE1,2:R3-10:R3|PEPTIDE1,PEPTIDE1,1:R1-13:R2$$$V2.0
SMILES: CCCCCCCC[C@@H]1NC(=O)[C@@H]2CCCN2C(=O)[C@H]2CCCN2C(=O)[C@H](Cc2ccc(O)cc2)NC(=O)[C@@H]2CSSC[C@H](NC1=O)C(=O)N[C@@H]([C@@H](C)O)C(=O)N[C@@H](C)C(=O)N[C@@H](CO)C(=O)N[C@@H]([C@@H](C)CC)C(=O)N1CCC[C@H]1C(=O)N1CCC[C@H]1C(=O)N[C@@H](CCC(N)=O)C(=O)N2
As for B9, the “% inhibition at 100 µM” value in test [3] amounted to 0%; in test [4], 0%; in test [6], 0%; in the test with Chymase, from human skin, 0%.

B10: Example 85 (peptide)
peptide: XCTASXPPQCY
HELM: PEPTIDE1{[Nle].C.T.A.S.[CC(C)(C)C[C@H](N[*:1])C(=O)[*:2]].P.P.Q.C.Y.[dP].P}$PEPTIDE1,PEPTIDE1,2:R3-10:R3|PEPTIDE1,PEPTIDE1,1:R1-13:R2$$$V2.0
SMILES: CCCC[C@@H]1NC(=O)[C@@H]2CCCN2C(=O)[C@H]2CCCN2C(=O)[C@H](Cc2ccc(O)cc2)NC(=O)[C@@H]2CSSC[C@H](NC1=O)C(=O)N[C@@H]([C@@H](C)O)C(=O)N[C@@H](C)C(=O)N[C@@H](CO)C(=O)N[C@@H](CC(C)(C)C)C(=O)N1CCC[C@H]1C(=O)N1CCC[C@H]1C(=O)N[C@@H](CCC(N)=O)C(=O)N2
notes: also called Ex. 85
In the case of B10, the “% inhibition at 100 µM” value in test [3] was found to be 25.6%; in test [6] it was 0%; in test [2], 12.6%.

B11: Example 125 (peptide)
peptide: XCTASIPPQCY
HELM: PEPTIDE1{[Nle].C.T.A.S.I.P.P.Q.C.Y.[dP].V}$PEPTIDE1,PEPTIDE1,2:R3-10:R3|PEPTIDE1,PEPTIDE1,1:R1-13:R2$$$V2.0
SMILES: CCCC[C@@H]1NC(=O)[C@H](C(C)C)NC(=O)[C@H]2CCCN2C(=O)[C@H](Cc2ccc(O)cc2)NC(=O)[C@@H]2CSSC[C@H](NC1=O)C(=O)N[C@@H]([C@@H](C)O)C(=O)N[C@@H](C)C(=O)N[C@@H](CO)C(=O)N[C@@H]([C@@H](C)CC)C(=O)N1CCC[C@H]1C(=O)N1CCC[C@H]1C(=O)N[C@@H](CCC(N)=O)C(=O)N2
On to B11, for which the “% inhibition at 100 µM” value is 0% in test [3], 28.3% in test [6] and 0% in test [2].
